The source of these data is PMC7242902.

In assay [1] the target is NLuc/CXCR4, exogenously (stably) expressed in HEK293 cells (UniProt P61073). The assay is described as follows: FRET or BRET; NanoBRET saturation binding on membrane preparations (10 μg membrane protein per well) with NLuc-tagged receptor; increasing CXCL12-AF647 for 60 min at 37°C in HBSS with 0.1% BSA; non-specific binding with AMD3100 (10 μM) for CXCR4 or CXCL11 (10 μM) for ACKR3. In general terms: BRET reads energy transfer from a luciferase to a nearby fluorophore.

In assay [2] the target is NLuc/ACKR3, exogenously (stably) expressed in HEK293 cells (UniProt P25106). The assay is described as above.
Assay [3] has as its target HiBiT/CXCR4, genome-edited, in HEK293 cells (human (endogenous in HEK293)) (UniProt P61073). The assay is described as follows: FRET or BRET; NanoBRET saturation binding on live HEK293 cells with genome-edited HiBiT/CXCR4; CXCL12-AF647 for 60 min at 37°C, then furimazine (10 μM) and purified cell-impermeant LgBiT (10 nM) added, so that only receptors at the plasma membrane are seen; non-specific binding with AMD3100 (10 μM).

Assay [4] concerns the target NLuc/CXCR4, genome-edited, in HEK293 cells (human (endogenous in HEK293)) (UniProt P61073). The assay is described as follows: FRET or BRET; NanoBRET saturation binding on live cells (30,000 cells/well) with NLuc-tagged receptor; increasing CXCL12-AF647 for 60 min at 37°C in HBSS with 0.1% BSA; non-specific binding with AMD3100 (10 μM) for CXCR4 or CXCL11 (10 μM) for ACKR3; furimazine 10 μM.

Assay [5] addresses NLuc/CXCR4, genome-edited, in HeLa cells (human (endogenous in HeLa)) (UniProt P61073). Described as above.
Assay [6] has as its target NLuc/ACKR3, exogenously (stably) expressed in HEK293 cells (UniProt P25106). The description is as above.
Assay [7] concerns the target NLuc/ACKR3, genome-edited, in HeLa cells (human (endogenous in HeLa)) (UniProt P25106). Described as above.
The target in assay [8] is HiBiT/CXCR4, genome-edited, in HEK293 cells (human (endogenous in HEK293)) (UniProt P61073). The assay is described as follows: split reporter (BiFC, NanoBiT); HiBiT-LgBiT complementation, saturation on live HEK293 cells with genome-edited HiBiT-tagged receptor; increasing purified LgBiT for 30 min at 37°C in HBSS with 0.1% BSA; without AMD3100; non-specific luminescence on wild-type cells. (HiBiT is a short tag that completes a luciferase, so light tracks the accessible tagged protein.)

Assay [9] has as its target HiBiT/β2-adrenoceptor, genome-edited, in HEK293 cells (human (endogenous in HEK293)) (UniProt P07550). The description is as above.
Assay [10] has as its target HiBiT-Halotag, control peptide. The assay is described as follows: split reporter (BiFC, NanoBiT); HiBiT-LgBiT complementation of purified proteins: 1 nM HiBiT-Halotag in HBSS with 0.1% BSA, increasing purified LgBiT; in the presence of AMD3100 (10 μM).
Assay [11] addresses HiBiT/CXCR4, genome-edited, in HEK293 cells (human (endogenous in HEK293)) (UniProt P61073). The assay is described as follows: split reporter (BiFC, NanoBiT); HiBiT-LgBiT complementation, saturation on membrane preparations (10 μg, 0.25 mg/ml saponin) from genome-edited HiBiT/CXCR4 HEK293 cells; increasing purified LgBiT; in the presence of AMD3100 (10 μM).
For assay [12] the target is unchanged. The assay is described as follows: split reporter (BiFC, NanoBiT); HiBiT-LgBiT complementation, saturation on live HEK293 cells with genome-edited HiBiT/CXCR4; increasing purified LgBiT; in the presence of AMD3100 (10 μM).
Assay [13] addresses HiBiT-Halotag, control peptide. The assay is described as follows: split reporter (BiFC, NanoBiT); HiBiT-LgBiT complementation of purified proteins: 1 nM HiBiT-Halotag in HBSS with 0.1% BSA, increasing purified LgBiT; without AMD3100.
The target of assay [14] is HiBiT/CXCR4, genome-edited, in HEK293 cells (human (endogenous in HEK293)) (UniProt P61073). The assay is described as follows: split reporter (BiFC, NanoBiT); HiBiT-LgBiT complementation, saturation on membrane preparations (10 μg, 0.25 mg/ml saponin) from genome-edited HiBiT/CXCR4 HEK293 cells; increasing purified LgBiT; without AMD3100.
The target in assay [15] is CXCR4/LgBiT, transiently transfected in HEK293 cells (UniProt P61073).
Assay [16] addresses CXCR4/LgBiT, genome-edited, in HEK293 cells (human (endogenous in HEK293)) (UniProt P61073).
Assay [17] concerns the target HiBiT/ACKR3, exogenously expressed in HEK293 cells (UniProt P25106).
In assay [18] the target is HiBiT/CXCR4, genome-edited, in HEK293 cells (human (endogenous in HEK293)) (UniProt P61073).
In assay [19] the target is HiBiT/CXCR4, exogenously (stably) expressed in HEK293 cells (UniProt P61073).

A word on the pKd: it is the Kd on a negative log10 scale, so that one unit is a factor of ten. For “CXCL12-AF647 (from UniProt P48061 22-93) (ligand)”, the pKd in assay [1] is 7.55 -log M; in assay [2], 8.83 -log M; in [3] it was 7.49 -log M; in [4], 7.5 -log M; in assay [5], 7.58 -log M; in assay [6], 8.12 -log M. In assay [7], the pKd is 8.77 -log M.

A word on the Kd: it is the equilibrium constant for the complex coming apart. Regarding Purified LgBiT (domain or fragment), the Kd in [8] is 230 nM; in [9] it was 54.5 nM; in assay [10] it was 7.73 nM; in assay [11], 115 nM; in assay [12] it was 58.5 nM; in [13], 6.99 nM. Besides, in [14], the Kd stood at 180 nM.

On to “CXCL12 (from UniProt P48061 22-93) (ligand)”, for which the pEC50 of CXCL12 (0.3-300 nM) for the increase in NanoBiT luminescence (recruitment of genome-edited β-arrestin2/SmBiT, m14, to transiently transfected CXCR4/LgBiT), about 5 min after ligand addition in assay [15] is 7.48 -log M. In [16], the pEC50 of CXCL12 (0.3-300 nM) for the increase in NanoBiT luminescence (recruitment of genome-edited β-arrestin2/SmBiT, m14, to genome-edited CXCR4/LgBiT), about 5 min after ligand addition was 7.16 -log M and the pEC50 of CXCL12 (0.3-300 nM) for the increase in NanoBiT luminescence (recruitment of transiently transfected β-arrestin2/SmBiT, m13, to genome-edited CXCR4/LgBiT), about 5 min after ligand addition is 7.69 -log M. Moreover, the pEC50 of CXCL12 for the increase in luminescence of live HEK293 cells with exogenous HiBiT/ACKR3 complemented with purified LgBiT in assay [17] is 8.23 -log M. For the same molecule, in assay [18], the pEC50 of CXCL12 for the decrease in luminescence (cell surface HiBiT/CXCR4 complemented with purified LgBiT, 10 nM) after 1 h at 37°C, live genome-edited HEK293 cells was 8.46 -log M. The pEC50 of CXCL12 for the decrease in luminescence (cell surface HiBiT/CXCR4 complemented with purified LgBiT, 10 nM) after 1 h at 37°C, live HEK293 cells stably overexpressing HiBiT/CXCR4 in assay [19] is 8.69 -log M.

B1: CXCL11 (ligand)
chain: FPMFKRGRCLCIGPGVKAVKVADIEKASIMYPSNNCDKIEVIITLKENKGQRCLNPKSKQARLIIKKVERKNF
Regarding B1, in assay [17], the pEC50 of CXCL11 for the increase in luminescence of live HEK293 cells with exogenous HiBiT/ACKR3 complemented with purified LgBiT is 7.48 -log M.
